Measured values reported in patent US20150079112A1 (SAMSUNG ELECTRONICS, published 2015).
Changes are numbered by the printed parent chain.

Assays:
[1] = target: mutant Ang2 protein, A449 substituted with alanine, FLAG-tagged at its N-terminal (human) (UniProt O15123); assay: ELISA, coated antibody 1000 nM, 250 ng FLAG-tagged mutant Ang2, anti-FLAG-HRP, OD450
BSA = target: T1, BSA (bovine, UniProt P02769); assay: ELISA: coated BSA, 10D6 2 µg/ml with or without FLAG-Ang2, detected with anti-mouse IgG-HRP (OD450)
T1 construct: also called Bovine serum albumin; BSA (Sigma)
T1 sequence (P02769 25-607 limits assumed): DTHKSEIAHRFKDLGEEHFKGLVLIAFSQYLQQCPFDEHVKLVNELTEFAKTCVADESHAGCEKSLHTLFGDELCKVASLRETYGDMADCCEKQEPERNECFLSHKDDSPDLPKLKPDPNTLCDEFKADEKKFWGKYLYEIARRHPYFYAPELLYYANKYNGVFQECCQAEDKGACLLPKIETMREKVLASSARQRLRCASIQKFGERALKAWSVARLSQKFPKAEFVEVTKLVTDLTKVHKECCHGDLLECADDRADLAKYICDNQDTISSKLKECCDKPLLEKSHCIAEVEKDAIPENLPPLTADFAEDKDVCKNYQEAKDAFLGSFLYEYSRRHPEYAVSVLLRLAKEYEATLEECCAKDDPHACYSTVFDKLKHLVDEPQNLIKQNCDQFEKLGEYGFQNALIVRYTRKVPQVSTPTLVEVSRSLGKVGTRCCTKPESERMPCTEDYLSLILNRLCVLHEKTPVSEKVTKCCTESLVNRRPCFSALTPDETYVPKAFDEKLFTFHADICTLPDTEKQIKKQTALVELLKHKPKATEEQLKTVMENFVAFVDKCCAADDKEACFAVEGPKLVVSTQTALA
Protocol: A 96-well MaxiSorp™ flat-bottom plate (Nunc) was coated with 4 ug/ml of Tie2-Fc (R&D systems) or BSA (Sigma). Then, the plate was washed five times with 0.05% (v/v) Tween-20-containing PBS (Phosphate Buffer Saline) and blocked with 1% (v/v) BSA (Bovine serum albumin; Sigma)-containing PBS at a room temperature for 2 hours. 0.25 ug/ml of Ang2 and 2 ug/ml of antibody 10D6 were added to each well of the plate, which was allowed to react at a room temperature for 2 hours and then washed five times with PBST. After that, an anti-mouse IgG antibody (Sigma) conjugated with HRP diluted in 1% (v/v) BSA-containing PBS at a ratio of 1:5,000 (v/v) was added in an amount of 100 ul to each well to react at a room temperature for 1 hour and then, the plate was washed five times with PBST. Lastly, 100 ul (microliter) of TMB substrate (Cell Signaling) was added to each well of the plate to induce color development for 3 min. and then, the reaction was ceased by the addition of 100 ul of Stop solution (Cell Signaling) and OD450 values were measured on a plate reader (Molecular Devices).

[2] = target: T2, mutant Ang2 protein, F469 substituted with alanine, FLAG-tagged at its N-terminal (human, UniProt O15123 19-496, limits assumed); assay: ELISA, coated antibody 1000 nM, 250 ng FLAG-tagged mutant Ang2, anti-FLAG-HRP, OD450
T2 sequence: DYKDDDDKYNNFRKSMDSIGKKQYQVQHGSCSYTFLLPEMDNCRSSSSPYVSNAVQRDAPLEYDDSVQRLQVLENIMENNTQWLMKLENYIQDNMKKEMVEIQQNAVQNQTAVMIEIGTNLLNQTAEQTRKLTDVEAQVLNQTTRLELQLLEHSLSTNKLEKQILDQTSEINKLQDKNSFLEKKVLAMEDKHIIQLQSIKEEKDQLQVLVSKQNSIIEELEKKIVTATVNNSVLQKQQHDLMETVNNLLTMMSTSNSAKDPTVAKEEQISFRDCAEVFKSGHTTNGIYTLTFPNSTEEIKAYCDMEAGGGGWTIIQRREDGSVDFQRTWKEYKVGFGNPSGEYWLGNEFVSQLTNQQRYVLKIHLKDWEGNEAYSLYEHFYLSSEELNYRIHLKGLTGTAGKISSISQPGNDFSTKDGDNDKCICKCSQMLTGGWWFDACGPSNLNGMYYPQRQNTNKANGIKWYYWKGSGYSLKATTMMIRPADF
In short: (§1)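 Antibody coated at 1000 nM and BSA-blocked; 250 ng N-terminally FLAG-tagged alanine-mutant Ang2 bound 2 h at room temperature, detected with HRP-anti-FLAG (1 h) and TMB, OD450. Binding expressed as % of that to native Ang2.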

[3] = target: T3, mutant Ang2 protein, N421 substituted with alanine, FLAG-tagged at its N-terminal (human, UniProt O15123 19-496, limits assumed); assay: as above
T3 sequence: T2 sequence with N411A, A459F
In short: as §1

B1: SAIT-ANG2-AB-m10D6 (antibody, V domains shown)
VH: DVQLQESGPGLVKPSQSLSLTCTVTGYSITSDYAWNWIRQFPGNKLEWMGYINYSGNTDYNPSLKSRSSITRDTSKNQFFLQLNSVTTGDTATYYCARGNFEGAMDYWGQGTSVTVSS
VL: SIVMTQTPKFLLVSAGDRVTITCKASQSVSNDVAWYQQKPGQSPKLLIYYASNRYPGVPDRFTGSGYGTDFTFTISTVQAEDLAVYFCQQDYSSPWTFGGGTKLEIK
notes: also called antibody 10D6; anti-Ang2 antibody (10D6)
binding affinity (%) with mutant Ang2 against the binding affinity with the native Ang2 [1]: 97.9%
binding result (BSA): no binding (tested: 2 µg/ml)
binding affinity (%) with mutant Ang2 against the binding affinity with the native Ang2 [2]: 109%
binding affinity (%) with mutant Ang2 against the binding affinity with the native Ang2 [3]: 109%
